Measured values taken from publication PMC13598120.

Target: BLM, endogenous, P54132
Assay: PLA (α-Flag + α-BLM)
Settings: chain shown with the change, U2OS cells, 2 h, read off a plot

response (PLA dots per cell) (20 μM ETO, parent: est. 100): 24 | response (PLA dots per cell) (DMSO, parent: est. 13): 5
B1: Flag-tagged GNL3 (Flag-GNL3), wild type, Q9BVP2 143VVLEVL149 to 143VAAEAL149 (SIMm) (protein)
chain: MKRPKLKKASKRMTCHKRYKIQKKVREHHRKLRKEAKKRGHKKPRKDPGVPNSAPFKEALLREAELRKQRLEELKQQQKLDRQKELEKKRKLETNPDIKPSNVEPMEKEFGLCKTENKAKSGKQNSKKLYCQELKKVIEASDVAAEALDARDPLGCRCPQVEEAIVQSGQKKLVLILNKSDLVPKENLESWLNYLKKELPTVVFRASTKPKDKGKITKRVKAKKNAAPFRSEVCFGKEGLWKLLGGFQETCSKAIRVGVIGFPNVGKSSIINSLKQEQMCNVGVSMGLTRSMQVVPLDKQITIIDSPSFIVSPLNSSSALALRSPASIEVVKPMEAASAILSQADARQVVLKYTVPGYRNSLEFFTVLAQRRGMHQKGGIPNVEGAAKLLWSEWTGASLAYYCHPPTSWTPPPYFNESIVVDMKSGFNLEELEKNNAQSIRAIKGPHLANSILFQSSGLTNGIIEEKDIHEELPKRKERKQEEREDDKDSDQETVDEEVDENSSGMFAAEETGEALSEETTAGEQSTRSFILDKIIEEDDAYDFSTDYV
